This is an account of results in the supplement of paper PMC10724198.

± gives the standard deviation of the averaged measurements.

Data set [1] has as its system Saccharomyces cerevisiae. Description: protein stability index of tFT-peptide fusion (C-terminal peptide) (PSI (0-1 scale)); higher = more stable (slower turnover). As for the experimental part: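 MPS profiling in S. cerevisiae of the tFT-X12 degron library: putative degron peptides plus stable controls, 12 aa, fused to the C-terminus of a sfGFP-mCherry timer. Cells are FACS-sorted into 8 mCherry/sfGFP bins and deep-sequenced. PSI runs from 0 (unstable) to 1 (stable). Backgrounds are wild type, das1Δ and doa10Δ at 30 °C, and wild type, das1Δ, cdc34-1 and cdc53-1 at 37 °C; 2-3 technical replicates each.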

The subject of data set [2] is Saccharomyces cerevisiae. Briefly: protein stability index of tFT-peptide fusion in deletion strain of DOA10 (PSI (0-1 scale)); higher = more stable (slower turnover). On the procedure: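 MPS profiling in S. cerevisiae of two library types built from selected 12-aa C-degron peptides (IN1, IN2, LN1, LN3, VN2, R1-R5, W1-W3, Atg1 and Rpa12 C-termini): saturation mutagenesis libraries and C-terminal +1 capping libraries (13 aa). Each peptide is fused to the C-terminus of a sfGFP-mCherry timer, after a GGGS linker. Cells are FACS-sorted into 8 mCherry/sfGFP bins and sequenced. PSI runs from 0 (unstable) to 1 (stable), measured once in wild type and in the das1Δ or doa10Δ background.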

Data set [3] relates to Saccharomyces cerevisiae. Description: protein stability index of tFT-peptide fusion (C-terminal peptide) (PSI (0-1 scale)); higher = more stable (slower turnover). The conditions noted are these: genetic background: wild type; temperature: 30 C.
Data set [4] deals with Saccharomyces cerevisiae. Briefly: protein stability index of tFT-peptide fusion in wild type (PSI (0-1 scale)); higher = more stable (slower turnover). Conditions: genetic background: wild type.
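For protein stability index of tFT-peptide fusion (C-terminal peptide) in this document: PSI is a weighted mean of sequencing reads over stability bins, variants kept only with over 10 reads, mCherry proximal and sfGFP distal, peptide attached via GGGS linker.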
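For protein stability index of tFT-peptide fusion in deletion strain of DOA10 in this document: PSI per variant is the weighted mean of its sequencing read distribution over the sorted stability bins, counting only variants with over 10 reads summed across bins.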
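For protein stability index of tFT-peptide fusion in wild type in this document: PSI derived as read-weighted mean over the 8 sorting bins, only variants exceeding 10 total reads kept, mCherry placed adjacent to the peptide and sfGFP distal.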

With RSLRVLLPLYFR, the protein stability index in data set [1] (genetic background: cdc34-1, temperature: 37 C) stood at 0.082 ± 0.034; in data set [1] (genetic background: cdc53-1, temperature: 37 C) it was 0.0762 ± 0.025; in data set [1] (genetic background: das1 deletion, temperature: 30 C), 0.234 ± 0.029; in data set [1] (genetic background: das1 deletion, temperature: 37 C) it was 0.271 ± 0.004; in data set [1] (genetic background: doa10 deletion, temperature: 30 C), 0.66 ± 0.029; in data set [1] (genetic background: wild type, temperature: 30 C), 0.234 ± 0.022. Also, the protein stability index in data set [1] (genetic background: wild type, temperature: 37 C) is 0.266 ± 0.043; in data set [2], 0.66; in data set [3], 0.3478 ± 0.0013; in data set [4], 0.289.
For RVTRLDRIYFRI, the values for the protein stability index in data set [2] and in data set [4] were 0.566 and 0.243, respectively.
As to RVTRMDAIYFRI, the protein stability index worked out at 0.683 in data set [2] and 0.365 in data set [4].
As to TLVSLPILLFFR, the protein stability index in data set [2] came out at 0.613; in data set [4], 0.0732.
For the sequence VLYMCSVGCWFR, the protein stability index was found to be 0.521 in data set [2] and 0.311 in data set [4].
For the sequence WITLPMCPLLLR, the protein stability index amounted to 0.606 in data set [2] and 0.31 in data set [4].
